Data on two molecules can be found in patent publication US20260027152A1 (SANGAMO THERAPEUTICS, published 2026).

Test [1] has as its target IL-23R (coated on beads, Example 1). Kind of test: cell-based or functional assay.
Test [2] concerns the target T1, human IL23Ra (coated on beads) (human, UniProt Q5VWK5 24-353, limits assumed).
T1 construct: also called human IL-23R alpha subunit
T1 sequence (looked up): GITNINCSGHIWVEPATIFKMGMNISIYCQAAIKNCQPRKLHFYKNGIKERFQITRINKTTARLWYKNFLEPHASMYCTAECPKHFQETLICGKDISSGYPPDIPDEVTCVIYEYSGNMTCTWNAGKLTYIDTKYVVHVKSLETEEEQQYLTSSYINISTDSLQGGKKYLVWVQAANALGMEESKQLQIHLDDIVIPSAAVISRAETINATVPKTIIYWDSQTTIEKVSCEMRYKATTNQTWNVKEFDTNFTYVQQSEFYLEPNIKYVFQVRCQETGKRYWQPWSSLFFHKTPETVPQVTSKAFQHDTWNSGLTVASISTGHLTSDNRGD
Kind of test: flow cytometry; biotinylated scFv on human IL23Ra-coated beads, detected with APC-streptavidin, EC50 from median fluorescence intensity. As to the method: (§1) The indicated scFVs were produced in mammalian 293tcells, purified and biotinylated. Biotinylated scFvs were then incubated at 25° C. with mouse or human IL23Ra-coated beads for 30 min in PBS. After cold washing, bound IL23R bound scFV was detected by incubation with APC-labelled Streptavidin and analysis of the samples on a Flow-cytometer. An EC50 was calculated based on the median fluorescence intensity from each condition. Calculation, curve fitting and EC50 calculation was performed via Graphpad Prism.
Background: In flow cytometry, cells or beads pass a laser one at a time.

The target of test [3] is T2, mouse IL23Ra (coated on beads) (mouse, UniProt Q8K4B4 24-372, limits assumed).
T2 construct: also called mouse IL-23R alpha subunit
T2 sequence (looked up): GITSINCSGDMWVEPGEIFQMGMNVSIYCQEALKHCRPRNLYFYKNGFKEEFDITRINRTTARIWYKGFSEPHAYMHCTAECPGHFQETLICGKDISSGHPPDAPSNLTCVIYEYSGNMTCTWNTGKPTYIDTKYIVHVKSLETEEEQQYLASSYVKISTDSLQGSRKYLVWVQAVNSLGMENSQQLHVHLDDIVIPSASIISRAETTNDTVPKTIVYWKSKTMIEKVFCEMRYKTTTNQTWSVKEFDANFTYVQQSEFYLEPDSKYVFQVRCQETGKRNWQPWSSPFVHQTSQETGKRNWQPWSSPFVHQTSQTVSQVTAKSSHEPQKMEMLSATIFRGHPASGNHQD
Kind of test: flow cytometry; biotinylated scFv on mouse IL23Ra-coated beads, detected with APC-streptavidin, EC50 from median fluorescence intensity. As to the method:
as §1

For test [4], the target named is T2, mouse IL23Ra (coated on beads). The test is described as follows: ratio of the EC50 values on mouse and human IL23Ra-coated beads (flow cytometry). As to the method: as §1

As usually defined, the EC50 is the midpoint of the concentration-response curve. A low value points to an effect from little substance.

Chain of IL-23R (coated on beads, Example 1) (Q5VWK5 whole entry): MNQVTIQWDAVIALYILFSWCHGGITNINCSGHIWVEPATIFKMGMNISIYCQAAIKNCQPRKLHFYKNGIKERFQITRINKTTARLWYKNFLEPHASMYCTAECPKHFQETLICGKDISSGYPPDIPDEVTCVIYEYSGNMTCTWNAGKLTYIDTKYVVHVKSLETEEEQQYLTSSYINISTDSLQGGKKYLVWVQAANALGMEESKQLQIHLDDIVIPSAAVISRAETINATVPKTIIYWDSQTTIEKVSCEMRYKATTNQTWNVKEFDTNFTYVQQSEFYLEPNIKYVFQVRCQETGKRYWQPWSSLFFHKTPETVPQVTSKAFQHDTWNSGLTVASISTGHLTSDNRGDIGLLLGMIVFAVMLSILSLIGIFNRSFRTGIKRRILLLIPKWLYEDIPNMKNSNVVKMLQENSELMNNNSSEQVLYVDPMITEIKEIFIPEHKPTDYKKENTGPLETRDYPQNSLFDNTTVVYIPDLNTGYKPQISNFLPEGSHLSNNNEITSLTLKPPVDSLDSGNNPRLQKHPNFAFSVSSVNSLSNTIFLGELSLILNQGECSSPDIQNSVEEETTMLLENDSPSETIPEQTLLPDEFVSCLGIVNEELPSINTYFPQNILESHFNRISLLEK

B1: CAR #2 (anti-IL-23R chimeric antigen receptor with scFv IL23RLamS4-G3, CD8 hinge, CD8 TM, CD28, CD3 zeta) (other)
chain: SYPYDVPDYASQSVLTQPPSVSGAPGQRVTISCTGSSSNIGAGYDVHWYQQLPGTAPKLLIYGNNNRPSGVPDRFSGSKSGTSASLAITGLQAEDEADYYCQSYDTGLSAWVFGGGTKLTVLGGGGSGGGGSGGGGSQLQLQESGPGLVKPSETLSLTCTVSGGSITSSNYYWGWIRQPPGKGLEWIGSIYYSGNTYYNPSLKSRVTISVDTSKNQFSLKLSSVTAADTAVYYCAREWSPYESEGFDYWGQGTLVTVSSTTTPAPRPPTPAPTIASQPLSLRPEACRPAAGGAVHTRGLDFACDIYIWAPLAGTCGVLLLSLVITLYCRSKRSRLLHSDYMNMTPRRPGPTRKHYQPYAPPRDFAAYRSRVKFSRSADAPAYQQGQNQLYNELNLGRREEYDVLDKRRGRDPEMGGKPRRKNPQEGLYNELQKDKMAEAYSEIGMKGERRRGKGHDGLYQGLSTATKDTYDALHMQALPPR
B1: the “CD69+ cells (CAR-Treg activation) after 24 h with IL-23R coated beads, fold increase” value in test [1] stood at 3.6 fold.

B2: anti-IL-23R scFv IL23RLamS4-G3 (scFv)
scFv: QSVLTQPPSVSGAPGQRVTISCTGSSSNIGAGYDVHWYQQLPGTAPKLLIYGNNNRPSGVPDRFSGSKSGTSASLAITGLQAEDEADYYCQSYDTGLSAWVFGGGTKLTVLGGGGSGGGGSGGGGSQLQLQESGPGLVKPSETLSLTCTVSGGSITSSNYYWGWIRQPPGKGLEWIGSIYYSGNTYYNPSLKSRVTISVDTSKNQFSLKLSSVTAADTAVYYCAREWSPYESEGFDYWGQGTLVTVSS
modifications: biotinylated (sites not given)
notes: also called hmIL23R LamS4-G3; scFv of the present disclosure
As to B2, the values for the concentration giving a half-maximal response (EC50) in test [2] and in test [3] were 37.6 nM and 53.1 nM, respectively. The “fold difference in binding affinity between human IL23R and mouse IL23R” value in test [4] was ~1.4 fold.
